{"source": "paper PMC3145977", "about": "“Thermostabilisation of an Agonist-Bound Conformation of the Human Adenosine A2A Receptor” (Journal of Molecular Biology, 2011)", "key": {"[1]": {"target": "T1, [^3H]NECA-bound A2AR (Homo sapiens, UniProt P29274)", "T1 construct": "The library of Ala/Leu scan mutants in the receptor A2aR-(2–316) was expressed from plasmid pRG/III-hs-MBP in E. coli strain DH5α; made in house; host or cells: Escherichia coli DH5α", "T1 sequence (P29274 2-316)": "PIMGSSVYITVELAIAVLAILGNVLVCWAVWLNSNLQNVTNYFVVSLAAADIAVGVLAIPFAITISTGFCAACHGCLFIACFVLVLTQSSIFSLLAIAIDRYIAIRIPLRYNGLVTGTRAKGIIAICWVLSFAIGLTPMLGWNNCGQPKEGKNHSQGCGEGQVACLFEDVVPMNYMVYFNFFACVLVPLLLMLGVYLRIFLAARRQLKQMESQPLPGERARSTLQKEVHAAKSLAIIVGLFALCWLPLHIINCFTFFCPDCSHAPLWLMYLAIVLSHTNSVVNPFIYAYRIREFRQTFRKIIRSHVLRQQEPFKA", "design": "method as in PMID 18664584", "conditions": "solubilised in DM; cited from earlier work"}, "[2]": {"target": "T2, [^3H]ZM241385-bound A2AR (Homo sapiens, UniProt P29274)", "T2 construct": "The library of Ala/Leu scan mutants in the receptor A2aR-(2–316) was expressed from plasmid pRG/III-hs-MBP in E. coli strain DH5α; made in house; host or cells: Escherichia coli DH5α", "T2 sequence (P29274 2-316)": "as above", "test": "Thermostability assay of detergent-solubilised receptor with [3H]ZM241385 bound", "type": "physicochemical", "conditions": "identical conditions; DDM", "experimental": "(§1) An aliquot of E. coli cells (14 mL) was thawed on ice and resupended in 500 μL of buffer A [50 mM Tris–HCl (pH 7.4), 0.4 M NaCl, 250 μg/mL lysozyme (Sigma) and 1 mg/mL DNase I (Sigma), supplemented with complete ethylenediaminetetraacetic acid (EDTA)-free Protease inhibitor cocktail (Roche)] and incubated for 1 h at 4 °C. Samples were then sonicated for 1 min at 4 °C using a cup-horn sonicator. The receptors were solubilised by adding 1% DDM and incubated for 1 h at 4 °C. Insoluble material was removed by centrifugation (5 min, 13,000g, 4 °C). The solubilised receptors were partially purified with Ni-NTA agarose (Qiagen). Agarose beads (300 μL) pre-equilibrated in buffer A were added to 700 μL of solubilised receptor. […].\n(§2) The sample was incubated for 45 min at 4 °C, then 30 min at the specified temperature and then 30 min at 4 °C. Receptor-bound and free radioligands were separated as previously described on mini gel-filtration columns.[26] Receptor-bound ligands were transferred to a 96-well plate (PerkinElmer) and mixed with 200 μL of Optiphase supermix (PerkinElmer). The bound ^3H-labeled ligand was determined using a 1450 Microbeta Trilux counter (1 min per sample)."}, "[3]": {"system": "[^3H]ZM241385-bound A2AR", "test": "Thermostability assay of detergent-solubilised receptor with [3H]ZM241385 bound", "type": "physicochemical, human", "conditions": "[3H]ZM241385 bound, DDM, 30 min heating, single thermostability curve", "experimental": "as §1, §2"}, "[4]": {"system": "[^3H]NECA-bound A2AR", "test": "Thermostability assay of detergent-solubilised receptor with [3H]NECA bound (ligand plus format)", "type": "physicochemical, human", "conditions": "for Improvement in stability compared to WT based on t1/2 (decrease in rate of unfolding): from Fig. 2c", "experimental": "as §1, with “[…]. After solubilisation in DDM, A2AR was bound to Ni^2+-NTA resin, washed to reduce the DDM concentration and then eluted (see Methods). […]. An” for “An”\nas §2\n(§3) For all the thermostabilisation studies carried out in our laboratory, the apparent Tm is the temperature for which 50% of the solubilised receptor remains folded after 30 min of incubation. The rate constant of the protein denaturation is a function of the temperature, and consequently, thermal denaturation of a protein can be compared to a chemical reaction for which the rate of the reaction is dependant on the temperature. Arrhenius established that any chemical reaction is temperature dependant. […]. The reference measurement representing the total binding activity of the sample A0 was considered to be measured at 4 °C. From the graphical representation t = Log10(t1/2) (Fig. 2c), we could extract a half-life for each construct at any temperature to define the improvement in stability of the various mutants compared to WT A2AR."}, "[5]": {"target": "A2AR-GL26 (L48A-Q89A-T65A-A54L) (Homo sapiens, UniProt P29274, A54L/L48A/Q89A/T65A)", "sequence (P29274 whole entry L48A/A54L/T65A/Q89A)": "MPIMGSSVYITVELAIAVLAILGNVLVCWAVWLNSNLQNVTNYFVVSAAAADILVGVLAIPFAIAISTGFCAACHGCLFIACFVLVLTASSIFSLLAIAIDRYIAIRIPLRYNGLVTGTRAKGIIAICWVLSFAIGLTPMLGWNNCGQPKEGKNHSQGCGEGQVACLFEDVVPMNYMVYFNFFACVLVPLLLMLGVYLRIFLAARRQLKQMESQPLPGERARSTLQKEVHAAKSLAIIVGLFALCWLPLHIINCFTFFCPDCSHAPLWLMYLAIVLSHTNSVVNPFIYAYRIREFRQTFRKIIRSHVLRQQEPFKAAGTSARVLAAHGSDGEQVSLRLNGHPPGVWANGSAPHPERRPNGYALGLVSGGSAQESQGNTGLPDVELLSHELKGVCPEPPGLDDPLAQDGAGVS"}, "[6]": {"target": "T3, [^3H]NECA-bound A2AR (Homo sapiens, UniProt P29274, L48A/Q89A/T65A)", "T3 construct": "The library of Ala/Leu scan mutants in the receptor A2aR-(2–316) was expressed from plasmid pRG/III-hs-MBP in E. coli strain DH5α; made in house; host or cells: Escherichia coli DH5α", "test": "Thermostability assay of detergent-solubilised receptor with [3H]NECA bound (ligand plus format)", "type": "physicochemical", "conditions": "[3H]NECA bound", "experimental": "as §1, with “[…]. After solubilisation in DDM, A2AR was bound to Ni^2+-NTA resin, washed to reduce the DDM concentration and then eluted (see Methods). […]. An” for “An”\nas §2, §3"}}, "note": "“And” between values parts separate entries of the source, which are not always exact repeats. Equal values may be shown once."}
{"molecule": "WT A2AR: wild-type human adenosine A2A receptor [reference compound]", "values": [{"measurement": "Apparent Tm in DM", "setting": "[1]", "result": 23, "unit": "°C"}, {"measurement": "Stability of [3H]ZM241385-bound versus [3H]NECA-bound A2AR", "setting": "[2]", "result": 3.5, "unit": "°C"}, {"measurement": "Apparent Tm, Antagonist [^3H]ZM241385", "setting": "[3]", "result": "32.0 ± 0.1", "unit": "°C"}, {"measurement": "Apparent Tm, Antagonist [^3H]ZM241385", "setting": "[3]; listed as WT", "result": 32, "unit": "°C"}, {"measurement": "Apparent Tm in DDM, Final values", "setting": "[4]; [3H]NECA bound, 0.025% DDM, replicate experiments", "result": "28.6 ± 0.2 °C and 28.6 ± 0.2 (n = 8) °C"}, {"measurement": "Apparent Tm, Agonist [^3H]NECA", "setting": "[4]; [3H]NECA bound, DDM, 30 min heating, single thermostability curve, estimated error ± 0.5 °C", "result": 28.5, "unit": "°C"}]}
{"molecule": "Nc1nc2ccc(Cl)cc2c2nc(-c3ccco3)nn12", "note": "[CGS15943]", "values": [{"measurement": "Reduction of binding affinity versus WT A2AR", "setting": "[5]", "result": 320, "unit": "fold"}]}
{"molecule": "GL23: A2AR mutant L48A-Q89A-T65A (protein, UniProt P29274 1-412, looked up, variant L48A Q89A T65A) Adenosine receptor A2a: MPIMGSSVYITVELAIAVLAILGNVLVCWAVWLNSNLQNVTNYFVVSAAAADIAVGVLAIPFAIAISTGFCAACHGCLFIACFVLVLTASSIFSLLAIAIDRYIAIRIPLRYNGLVTGTRAKGIIAICWVLSFAIGLTPMLGWNNCGQPKEGKNHSQGCGEGQVACLFEDVVPMNYMVYFNFFACVLVPLLLMLGVYLRIFLAARRQLKQMESQPLPGERARSTLQKEVHAAKSLAIIVGLFALCWLPLHIINCFTFFCPDCSHAPLWLMYLAIVLSHTNSVVNPFIYAYRIREFRQTFRKIIRSHVLRQQEPFKAAGTSARVLAAHGSDGEQVSLRLNGHPPGVWANGSAPHPERRPNGYALGLVSGGSAQESQGNTGLPDVELLSHELKGVCPEPPGLDDPLAQDGAGVS", "values": [{"measurement": "Decrease in stability in DM compared with DDM", "setting": "[6]", "result": 7.7, "unit": "°C"}, {"measurement": "Apparent Tm in DDM, Single measurement", "setting": "[4]", "result": 50, "unit": "°C"}, {"measurement": "Improvement in stability compared to WT based on t1/2 (decrease in rate of unfolding)", "setting": "[4]; [3H]NECA bound, DDM", "result": 226, "unit": "fold"}, {"measurement": "Improvement in stability compared to WT based on t1/2 (decrease in rate of unfolding)", "setting": "[4]; [3H]NECA bound, DDM, listed as A2AR-GL23", "result": "about 230 fold"}]}
